In US8895526B2, “Identification of RNAI targets and use of RNAI for rational therapy of chemotherapy-resistant leukemia and other cancers” (Cold Spring Harbor Laboratory, priority 2009, dated 2014):

Assays:
[1] = test system: immortalized murine embryonic fibroblasts (Mef); assay: Pooled negative selection RNAi screening (deep sequencing); assay type: cell-based; conditions: deep sequencing reads, on dox compared to initial representation
Method in brief: (§1)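 A pool of 1230 tet-regulated shRNAs (TRMPV-type) was retrovirally transduced at mostly single copy and ~1000-fold representation into tet-on MLL/AF9+Nras AML cells or immortalized murine embryonic fibroblasts, then cultured on or off doxycycline. shRNA-expressing cells were FACS-sorted, and shRNA representation was quantified by PCR and deep sequencing of genomic DNA, with depletion on dox compared against t0 and off dox.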

[2] = test system: tet-on competent MLL/AF9+Nras AML; assay: as above; assay type: cell-based, mouse; conditions: deep sequencing reads, On Dox compared to T0
Method in brief: as §1

Molecule | Fold depletion in Mef [1] | Fold depletion in AML [2]
Mn1.1403: neutral control shRNA, SEQ ID NO: 205 (nucleic acid) TGCTGTTGACAGTGAGCGCAACGGTACCCTAGACAACCAATAGTGAAGCCACAGATGTATTGGTTGTCTAGGGTACCGTTATGCCTACTGCCTCGGA | 0.77 Fold | 1.94 Fold
Lin28.2180: neutral control shRNA, SEQ ID NO: 198 (nucleic acid) TGCTGTTGACAGTGAGCGCAGCGTGATGGTTGATAGCTAATAGTGAAGCCACAGATGTATTAGCTATCAACCATCACGCTATGCCTACTGCCTCGGA | 0.80 Fold | 1.15 Fold
Mn1.2545: neutral control shRNA, SEQ ID NO: 206 (nucleic acid) TGCTGTTGACAGTGAGCGCCAGCGCGGTTGCAGCCGGTAATAGTGAAGCCACAGATGTATTACCGGCTGCAACCGCGCTGTTGCCTACTGCCTCGGA | 0.29 Fold | 0.81 Fold
Rpa1.1620: shRNA, SEQ ID NO: 175 (also SEQ ID NO: 57) (nucleic acid) TGCTGTTGACAGTGAGCGCCCGCATGATCTTATCGGCAAATAGTGAAGCCACAGATGTATTTGCCGATAAGATCATGCGGTTGCCTACTGCCTCGGA | 10.23 Fold | 2,891.47 Fold
Myb.2572: shRNA, SEQ ID NO: 143 (also SEQ ID NO: 52) (nucleic acid) TGCTGTTGACAGTGAGCGCTCCATGTATCTCAGTCACTAATAGTGAAGCCACAGATGTATTAGTGACTGAGATACATGGAATGCCTACTGCCTCGGA | 0.92 Fold | 67.47 Fold
Myb.670: shRNA, SEQ ID NO: 145 (also SEQ ID NO: 54) (nucleic acid) TGCTGTTGACAGTGAGCGACACAACCATTTGAATCCAGAATAGTGAAGCCACAGATGTATTCTGGATTCAAATGGTTGTGCTGCCTACTGCCTCGGA | 1.28 Fold | 26.46 Fold
Rock2.3898: shRNA, SEQ ID NO: 174 (nucleic acid) TGCTGTTGACAGTGAGCGCCAGATTCTATATGCCAATGAATAGTGAAGCCACAGATGTATTCATTGGCATATAGAATCTGATGCCTACTGCCTCGGA | 1.04 Fold | 8.10 Fold
Myc.1888: shRNA, SEQ ID NO: 146 (nucleic acid) TGCTGTTGACAGTGAGCGAGAAACGACGAGAACAGTTGAATAGTGAAGCCACAGATGTATTCAACTGTTCTCGTCGTTTCCTGCCTACTGCCTCGGA | 3.83 Fold | 8.48 Fold
Mcl1.2018: shRNA, SEQ ID NO: 140 (also SEQ ID NO: 45) (nucleic acid) TGCTGTTGACAGTGAGCGCGGACTGGTTATAGATTTATAATAGTGAAGCCACAGATGTATTATAAATCTATAACCAGTCCATGCCTACTGCCTCGGA | 3.02 Fold | 11.48 Fold
Nln.1429: shRNA, SEQ ID NO: 151 (nucleic acid) TGCTGTTGACAGTGAGCGAAAGGATAAAGCTACTGGAGAATAGTGAAGCCACAGATGTATTCTCCAGTAGCTTTATCCTTCTGCCTACTGCCTCGGA | 1.61 Fold | 8.03 Fold
Bcl2.2169: shRNA, SEQ ID NO: 96 (also SEQ ID NO: 42) (nucleic acid) TGCTGTTGACAGTGAGCGACAGTAGAAATTATATGCATTATAGTGAAGCCACAGATGTATAATGCATATAATTTCTACTGCTGCCTACTGCCTCGGA | 1.62 Fold | 12.61 Fold
Map2k1.2337: neutral control shRNA, SEQ ID NO: 204 (nucleic acid) TGCTGTTGACAGTGAGCGCCAAGATGTTTATCAAATCTAATAGTGAAGCCACAGATGTATTAGATTTGATAAACATCTTGATGCCTACTGCCTCGGA | 0.68 Fold | 0.24 Fold
Myb.2652: shRNA, SEQ ID NO: 144 (also SEQ ID NO: 53) (nucleic acid) TGCTGTTGACAGTGAGCGCCCCAAGTAATACTTAATGCAATAGTGAAGCCACAGATGTATTGCATTAAGTATTACTTGGGATGCCTACTGCCTCGGA | 1.14 Fold | 15.46 Fold
Cdc42ep3.1922: shRNA, SEQ ID NO: 104 (nucleic acid) TGCTGTTGACAGTGAGCGCAACAAGCAAGGTATTACTGTATAGTGAAGCCACAGATGTATACAGTAATACCTTGCTTGTTTTGCCTACTGCCTCGGA | 0.38 Fold | 315.30 Fold
Rpa3.561: shRNA, SEQ ID NO: 176 (also SEQ ID NO: 61) (nucleic acid) TGCTGTTGACAGTGAGCGCAAAAGTGATACTTCAATATATTAGTGAAGCCACAGATGTAATATATTGAAGTATCACTTTTATGCCTACTGCCTCGGA | 10.63 Fold | 8.81 Fold
Pcna.566: shRNA, SEQ ID NO: 160 (nucleic acid) TGCTGTTGACAGTGAGCGATCGGGTGAATTTGCACGTATATAGTGAAGCCACAGATGTATATACGTGCAAATTCACCCGACTGCCTACTGCCTCGGA | 6.15 Fold | 9.89 Fold

Molecule | Fold depletion in Mef [1] | Fold depletion in AML [2]
Lin28.2270: neutral control shRNA, SEQ ID NO: 200 (nucleic acid) TGCTGTTGACAGTGAGCGCAACGGGACAAATGCAATAGAATAGTGAAGCCACAGATGTATTCTATTGCATTTGTCCCGTTTTGCCTACTGCCTCGGA | 1.10 Fold | 0.22 Fold
Lin28.2186: neutral control shRNA, SEQ ID NO: 199 (nucleic acid) TGCTGTTGACAGTGAGCGAATGGTTGATAGCTAAAGGAAATAGTGAAGCCACAGATGTATTTCCTTTAGCTATCAACCATCTGCCTACTGCCTCGGA | 1.55 Fold | 1.43 Fold
Kit.4813: neutral control shRNA, SEQ ID NO: 197 (nucleic acid) TGCTGTTGACAGTGAGCGATTGGATATTCTTGAAAGTTTATAGTGAAGCCACAGATGTATAAACTTTCAAGAATATCCAAGTGCCTACTGCCTCGGA | 0.84 Fold | 0.81 Fold
Map2k1.1200: neutral control shRNA, SEQ ID NO: 203 (nucleic acid) TGCTGTTGACAGTGAGCGAGCCTCTCAGCTCATATGGAATTAGTGAAGCCACAGATGTAATTCCATATGAGCTGAGAGGCCTGCCTACTGCCTCGGA | 1.24 Fold | 2.26 Fold
Luciferase.1309: neutral control shRNA, SEQ ID NO: 202 (nucleic acid) TGCTGTTGACAGTGAGCGCCCGCCTGAAGTCTCTGATTAATAGTGAAGCCACAGATGTATTAATCAGAGACTTCAGGCGGTTGCCTACTGCCTCGGA | 0.52 Fold | 1.22 Fold
Pcna.1186: shRNA, SEQ ID NO: 159 (nucleic acid) TGCTGTTGACAGTGAGCGAATCAATGATCTTGACGCTAAATAGTGAAGCCACAGATGTATTTAGCGTCAAGATCATTGATGTGCCTACTGCCTCGGA | 11.42 Fold | 51.94 Fold
Kit.2021: neutral control shRNA, SEQ ID NO: 195 (nucleic acid) TGCTGTTGACAGTGAGCGACACCCTGGTCATTACAGAATATAGTGAAGCCACAGATGTATATTCTGTAATGACCAGGGTGGTGCCTACTGCCTCGGA | 1.61 Fold | 1.92 Fold
Myc.2105: shRNA, SEQ ID NO: 148 (nucleic acid) TGCTGTTGACAGTGAGCGCCTGCCTCAAACTTAAATAGTATAGTGAAGCCACAGATGTATACTATTTAAGTTTGAGGCAGTTGCCTACTGCCTCGGA | 11.70 Fold | 9.19 Fold
Myc.1891: shRNA, SEQ ID NO: 147 (nucleic acid) TGCTGTTGACAGTGAGCGCACGACGAGAACAGTTGAAACATAGTGAAGCCACAGATGTATGTTTCAACTGTTCTCGTCGTTTGCCTACTGCCTCGGA | 4.62 Fold | 9.05 Fold
Bcl2.1422: shRNA, SEQ ID NO: 95 (also SEQ ID NO: 41) (nucleic acid) TGCTGTTGACAGTGAGCGACCGGGAGAACAGGGTATGATATAGTGAAGCCACAGATGTATATCATACCCTGTTCTCCCGGCTGCCTACTGCCTCGGA | 2.71 Fold | 1,686.19 Fold
Mcl1.1334: shRNA, SEQ ID NO: 139 (also SEQ ID NO: 43) (nucleic acid) TGCTGTTGACAGTGAGCGAAAGAGTCACTGTCTGAATGAATAGTGAAGCCACAGATGTATTCATTCAGACAGTGACTCTTCTGCCTACTGCCTCGGA | 3.00 Fold | 104.03 Fold
Lin28.2430: neutral control shRNA, SEQ ID NO: 201 (nucleic acid) TGCTGTTGACAGTGAGCGATGGCCTAGTTGTGTAAATATATAGTGAAGCCACAGATGTATATATTTACACAACTAGGCCACTGCCTACTGCCTCGGA | 0.89 Fold | 1.37 Fold
Nrg4.1358: shRNA, SEQ ID NO: 153 (nucleic acid) TGCTGTTGACAGTGAGCGCCAGACATGTTGAAGTGAATAATAGTGAAGCCACAGATGTATTATTCACTTCAACATGTCTGTTGCCTACTGCCTCGGA | 0.54 Fold | 8.11 Fold
Bcl2.906: shRNA, SEQ ID NO: 98 (nucleic acid) TGCTGTTGACAGTGAGCGCGCACAGGAATTTTGTTTAATATAGTGAAGCCACAGATGTATATTAAACAAAATTCCTGTGCATGCCTACTGCCTCGGA | 0.98 Fold | 12.28 Fold
Kit.221: neutral control shRNA, SEQ ID NO: 196 (nucleic acid) TGCTGTTGACAGTGAGCGCCAGATGGACTTTCAAGACCTATAGTGAAGCCACAGATGTATAGGTCTTGAAAGTCCATCTGATGCCTACTGCCTCGGA | 0.69 Fold | 1.19 Fold
